Test results as given in article PMC5004264, “The pesticidal Cry6Aa toxin from Bacillus thuringiensis is structurally similar to HlyE-family alpha pore-forming toxins” (BMC Biology, 2016).

Tests used:
[1] = target: full-length, wild-type Cry6Aa1 (Bacillus thuringiensis) (UniProt Q45757); experiment: SEC + other: non-denaturing and denaturing SDS-PAGE; Superdex 75 26/90, 25 mM CAPS pH 10, 50 mM NaCl, 2.5 ml/min; first peak at the void volume held dimers (only monomers on denaturing SDS-PAGE), second peak predominantly monomer
[2] = target: T1, Cry6Aa trypsin-resistant core, polypeptide chain 12-390 (Bacillus thuringiensis, UniProt Q45757 12-390); experiment: intact mass LC-MS; settings: both partners purified
T1 construct: cut after Arg11 and after Arg390; Never separated from the C-terminal peptide without reduction; Cys88 is disulfide bonded to Cys451 of the peptide; also called main body of the toxin; major core
T1 sequence (looked up): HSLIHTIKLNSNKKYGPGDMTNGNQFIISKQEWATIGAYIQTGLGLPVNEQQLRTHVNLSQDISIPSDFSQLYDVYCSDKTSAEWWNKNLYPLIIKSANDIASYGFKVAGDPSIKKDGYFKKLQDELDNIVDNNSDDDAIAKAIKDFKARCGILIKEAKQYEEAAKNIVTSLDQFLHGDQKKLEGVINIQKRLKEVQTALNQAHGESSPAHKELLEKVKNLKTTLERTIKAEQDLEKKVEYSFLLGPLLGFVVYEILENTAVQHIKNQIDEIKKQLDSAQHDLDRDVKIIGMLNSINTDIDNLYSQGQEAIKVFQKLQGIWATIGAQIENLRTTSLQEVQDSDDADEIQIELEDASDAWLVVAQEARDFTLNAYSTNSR

full-length, wild-type Cry6Aa1 (from UniProt Q45757 1-475) (natural protein)
stoichiometry N [1]: 2

B1: Cry6Aa C-terminal peptide CTP2 (residues 451-475) (peptide)
peptide: CPENNFMIYWYNNSDWYNNSDWYNN
notes: Minor species of the trypsin-processed toxin
binding result [2]: binds

B2: Cry6Aa C-terminal peptide CTP1 (residues 444-475) (peptide)
peptide: NSNLEYKCPENNFMIYWYNNSDWYNNSDWYNN
notes: Cys451 is disulfide bonded to Cys88 of chain 12-390
binding result [2]: binds
